From PMC5523967, “Dimerized Domain V of Beta2-Glycoprotein I Is Sufficient to Upregulate Procoagulant Activity in PMA-Treated U937 Monocytes and Require Intact Residues in Two Phospholipid-Binding Loops” (Antibodies, 2017)
Substitutions are numbered along the chain they refer to.

Columns and labels:
Assay in all cases: ITC; A1 (500 μM) in the injection syringe titrated in 2 μL increments into HA-DV or HA-DV variant (50 μM) in the sample cell; 298 K; 25 mM Hepes pH 7.1, 50 mM NaCl, 2 mM CaCl2; one site binding model
Conditions in all cases: both partners purified
[1] = molecular target: T1, HA-DV Leu313/Asp_Phe315/Ser (human, UniProt P02749 263-345, Leu313/Asp | Phe315/Ser)
T1 construct: beta2-glycoprotein I (β2GPI), human, domain V, residues 244-326, Leu313 to Asp and Phe315 to Ser; Double mutant of m2; source: expressed from a pET15b vector and purified as previously described [34]; not shown: HA, N-terminal, kept
T1 sequence (looked up): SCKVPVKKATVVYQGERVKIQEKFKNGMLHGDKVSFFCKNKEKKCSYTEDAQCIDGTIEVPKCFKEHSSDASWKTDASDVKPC

[2] = molecular target: T2, HA-DV Lys282/Arg (human, UniProt P02749 263-345, Lys282/Arg)
T2 construct: beta2-glycoprotein I (β2GPI), human, domain V, residues 244-326, Lys282 to Arg; Point mutant of m2; also called Lys282/Arg variant of HA-DV; source: expressed from a pET15b vector and purified as previously described [34]; not shown: HA, N-terminal, kept
T2 sequence (looked up): T1 sequence (looked up) with K39R, D70L, S72F

[3] = molecular target: T3, HA-DV Leu313/Asn (human, UniProt P02749 263-345, Leu313/Asn)
T3 construct: beta2-glycoprotein I (β2GPI), human, domain V, residues 244-326, Leu313 to Asn; Point mutant of m2; also called Leu313/Asn variant of HA-DV; source: expressed from a pET15b vector and purified as previously described [34]; not shown: HA, N-terminal, kept
T3 sequence (looked up): T1 sequence (looked up) with D70N, S72F

[4] = molecular target: T4, HA-DV Lys308/Arg (human, UniProt P02749 263-345, Lys308/Arg)
T4 construct: beta2-glycoprotein I (β2GPI), human, domain V, residues 244-326, Lys308 to Arg; Point mutant of m2; also called Lys308/Arg variant of HA-DV; source: expressed from a pET15b vector and purified as previously described [34]; not shown: HA, N-terminal, kept
T4 sequence (looked up): T1 sequence (looked up) with K65R, D70L, S72F

[5] = molecular target: T5, HA-tagged domain V of human β2GPI (HA-DV), wild type (human, UniProt P02749 263-345)
T5 construct: beta2-glycoprotein I (β2GPI), human, domain V, residues 244-326; also called wild type HA-DV; β2GPI-DV; source: expressed from a pET15b vector and purified as previously described [34]; not shown: HA, N-terminal, kept
T5 sequence (looked up): T1 sequence (looked up) with D70L, S72F

binding result [1]: binds | binding result [2]: binds | binding result [3]: binds | binding result [4]: binds | binding result [5]: binds
B1: A1, fragment of mouse ApoER2 (residues 12-47) in which Asp is substituted for Asn36 (domain or fragment)
chain: not shown
notes: source: Escherichia coli, purified as previously described [64]
